Sequences and labels used below:
B1: NSUN2 (NOP2/Sun RNA methyltransferase family member 2), wild type, in PANC-1 cells [human (endogenous in PANC-1)] / STUB1 (STIP1 homology and U-box containing protein 1), in PANC-1 cells [human (endogenous in PANC-1)] (parent)
chain 1: MKGKEEKEGGARLGAGGGSPEKSPSAQELKEQGNRLFVGRKYPEAAACYGRAITRNPLVAVYYTNRALCYLKMQQHEQALADCRRALELDGQSVKAHFFLGQCQLEMESYDEAIANLQRAYSLAKEQRLNFGDDIPSALRIAKKKRWNSIEERRIHQESELHSYLSRLIAAERERELEECQRNHEGDEDDSHVRAQQACIEAKHDKYMADMDELFSQVDEKRKKRDIPDYLCGKISFELMREPCITPSGITYDRKDIEEHLQRVGHFDPVTRSPLTQEQLIPNLAMKEVIDAFISENGWVEDY
chain 2: MGRRSRGRRLQQQQRPEDAEDGAEGGGKRGEAGWEGGYPEIVKENKLFEHYYQELKIVPEGEWGQFMDALREPLPATLRITGYKSHAKEILHCLKNKYFKELEDLEVDGQKVEVPQPLSWYPEELAWHTNLSRKILRKSPHLEKFHQFLVSETESGNISRQEAVSMIPPLLLNVRPHHKILDMCAAPGSKTTQLIEMLHADMNVPFPEGFVIANDVDNKRCYLLVHQAKRLSSPCIMVVNHDASSIPRLQIDVDGRKEILFYDRILCDVPCSGDGTMRKNIDVWKKWTTLNSLQLHGLQLRIATRGAEQLAEGGRMVYSTCSLNPIEDEAVIASLLEKSEGALELADVSNELPGLKWMPGITQWKVMTKDGQWFTDWDAVPHSRHTQIRPTMFPPKDPEKLQAMHLERCLRILPHHQNTGGFFVAVLVKKSSMPWNKRQPKLQGKSAETRESTQLSPADLTEGKPTDPSKLESPSFTGTGDTEIAHATEDLENNGSKKDGVCGPPPSKKMKLFGFKEDPFVFIPEDDPLFPPIEKFYALDPSFPRMNLLTRTTEGKKRQLYMVSKELRNVLLNNSEKMKVINTGIKVWCRNNSGEEFDCAFRLAQEGIYTLYPFINSRIITVSMEDVKILLTQENPFFRKLSSETYSQAKDLAKGSIVLKYEPDSANPDALQCPIVLCGWRGKASIRTFVPKNERLHYLRMMGLEVLGEKKKEGVILTNESAASTGQPDNDVTEGQRAGEPNSPDAEEANSPDVTAGCDPAGVHPPR

The experiment covers variants of B1. Description: Co-IP (IP: anti-Flag) immunoblot, band quantification. The note with it: with STUB1 (STIP1 homology and U-box containing protein 1), MG132 +, n = 3, parent: 1, read off a plot. On the technique in general: In western blotting, separated proteins are transferred to a membrane and probed.
On to chain 2 K692E, for which the response (relative intensity) turned out to be 0.3. Take chain 2 K692R: the response (relative intensity) is 2.

These data come from article PMC12680535.
